Source: patent publication US20050282743A1, “Molecular interactions in cells” (Arbor Vita Corporation, priority 2001, published 2005)

T1: GST-NeDLG PDZ domain 2 (Rattus norvegicus (Rat)), Q62936
T1 chain: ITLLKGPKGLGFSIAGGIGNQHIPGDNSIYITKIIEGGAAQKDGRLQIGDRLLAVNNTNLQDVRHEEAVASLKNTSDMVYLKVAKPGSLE

T2: GST-Syntrophin gamma 2 PDZ domain 1 (Homo sapiens (Human)), Q9NY99
T2 chain: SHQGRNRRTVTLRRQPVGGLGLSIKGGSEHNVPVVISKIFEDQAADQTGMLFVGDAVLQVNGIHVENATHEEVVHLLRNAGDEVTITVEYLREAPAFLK

T3: GST-MINT1 PDZ domain 1 (Mus musculus (Mouse)), B2RUJ5
T3 chain: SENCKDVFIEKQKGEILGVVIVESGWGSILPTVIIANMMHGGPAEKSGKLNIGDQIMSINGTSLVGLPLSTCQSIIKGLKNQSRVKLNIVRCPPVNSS

T4: GST-PTPL1 PDZ domain 4 (Homo sapiens (Human)), Q12923
T4 chain: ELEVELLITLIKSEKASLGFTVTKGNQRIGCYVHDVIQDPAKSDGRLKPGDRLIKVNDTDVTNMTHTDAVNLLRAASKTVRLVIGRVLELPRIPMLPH

T5: GST-ZO-2 PDZ domain 1 (Homo sapiens (Human)), Q9UDY2
T5 chain: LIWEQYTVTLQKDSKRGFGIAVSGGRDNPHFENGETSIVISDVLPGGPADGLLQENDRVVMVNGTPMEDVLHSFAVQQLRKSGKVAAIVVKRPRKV

T6: GST-ZO-2 PDZ domain 2 (Homo sapiens (Human)), Q9UDY2
T6 chain: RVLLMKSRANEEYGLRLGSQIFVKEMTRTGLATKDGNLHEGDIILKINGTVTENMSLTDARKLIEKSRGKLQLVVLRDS

T7: GST-ZO-3 PDZ domain 1
T7 chain: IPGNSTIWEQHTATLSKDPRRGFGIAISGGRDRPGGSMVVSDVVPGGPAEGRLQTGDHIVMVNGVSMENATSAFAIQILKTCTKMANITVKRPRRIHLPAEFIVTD

T8: GST-KIAA0382 PDZ domain 1 (Canis lupus familiaris (Dog) (Canis familiaris)), A0A8I3
T8 chain: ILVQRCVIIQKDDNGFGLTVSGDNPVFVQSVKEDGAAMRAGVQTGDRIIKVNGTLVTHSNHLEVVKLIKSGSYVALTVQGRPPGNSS

T9: GST-DLG1 PDZ domain 2 (Homo sapiens), Q12959
T9 chain: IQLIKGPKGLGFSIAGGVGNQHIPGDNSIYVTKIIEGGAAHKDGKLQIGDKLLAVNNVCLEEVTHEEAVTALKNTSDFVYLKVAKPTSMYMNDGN

T10: GST-INADL PDZ domain 8 (Homo sapiens (Human)), Q8NI35
T10 chain: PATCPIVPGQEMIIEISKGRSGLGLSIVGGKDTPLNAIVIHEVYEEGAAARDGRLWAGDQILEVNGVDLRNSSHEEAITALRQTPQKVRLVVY

T11: GST-INADL PDZ domain 5 (Homo sapiens (Human)), Q8NI35
T11 chain: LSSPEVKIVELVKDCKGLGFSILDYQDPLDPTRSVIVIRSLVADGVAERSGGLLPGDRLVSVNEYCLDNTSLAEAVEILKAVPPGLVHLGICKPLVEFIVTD

T12: GST-Shank 1 PDZ domain 1 (Homo sapiens (Human)), Q9UPX8
T12 chain: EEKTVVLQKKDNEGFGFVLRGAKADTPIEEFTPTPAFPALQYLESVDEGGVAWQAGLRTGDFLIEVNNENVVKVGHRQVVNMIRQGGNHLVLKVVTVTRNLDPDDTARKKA

T13: GST-MINT1 PDZ domains 1, 2, Q02410
T13 chain: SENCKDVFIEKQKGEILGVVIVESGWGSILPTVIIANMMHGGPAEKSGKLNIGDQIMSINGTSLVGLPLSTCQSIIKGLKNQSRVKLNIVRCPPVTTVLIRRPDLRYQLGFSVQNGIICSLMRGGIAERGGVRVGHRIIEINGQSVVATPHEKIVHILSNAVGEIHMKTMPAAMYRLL

T14: GST-ZO-3 PDZ domain 3 (Homo sapiens (Human)), O95049
T14 chain: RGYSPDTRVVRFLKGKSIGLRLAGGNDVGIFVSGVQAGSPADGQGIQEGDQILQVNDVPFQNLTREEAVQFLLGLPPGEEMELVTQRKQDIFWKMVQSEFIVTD

T15: GST-KIAA1634 PDZ domain 2 (Homo sapiens (Human)), Q5TCQ9
T15 chain: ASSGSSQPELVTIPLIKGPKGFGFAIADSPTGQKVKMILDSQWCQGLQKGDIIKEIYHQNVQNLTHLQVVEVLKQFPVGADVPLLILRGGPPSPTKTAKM

T16: GST-ERBIN PDZ domain 1 (Homo sapiens (Human)), Q96RT1
T16 chain: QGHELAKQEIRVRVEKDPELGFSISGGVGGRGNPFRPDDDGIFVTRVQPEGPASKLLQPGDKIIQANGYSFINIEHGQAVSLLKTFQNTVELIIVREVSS


Molecular target: T1, GST-NeDLG PDZ domain 2 (Rattus …)
Assay: G' assay
Further: key of the grades not given here.

Row | Binder | Classification
1 | ILNSIQVMRAQMNQIQSVEV (modifications not checked) [ephrin B2] | 2 A450 class
2 | VGTLLLERVIFPSVKIATLV (modifications not checked) [AdenoE4 typ9] | 5 A450 class
3 | TQGFPGPATWRRISSLESEV (modifications not checked) [NMDA Glutamate Receptor 2C (cysteine-free)] | 5 A450 class
4 | QISPGGLEPPSEKHFRETEV (modifications not checked) [TAX] | 5 A450 class

Molecular target: T2, GST-Syntrophin gamma 2 PDZ domain 1 …
Assay: G' assay

Row | Binder | Classification
5 | TQGFPGPATWRRISSLESEV (modifications not checked) [NMDA Glutamate Receptor 2C (cysteine-free)] | 2 A450 class
6 | QISPGGLEPPSEKHFRETEV (modifications not checked) [TAX] | 1 A450 class
7 | VPGALDYAAFSSALYGESDL (modifications not checked) [a-actinin 2] | 1 A450 class

Molecular target: T3, GST-MINT1 PDZ domain 1 (Mus musculus …)
Assay: G' assay

Row | Binder | Classification
8 | ILNSIQVMRAQMNQIQSVEV (modifications not checked) [ephrin B2] | 1 A450 class

Molecular target: T4, GST-PTPL1 PDZ domain 4 (Homo sapiens …)
Assay: G' assay

Row | Binder | Classification
9 | ILNSIQVMRAQMNQIQSVEV (modifications not checked) [ephrin B2] | 2 A450 class
10 | VGTLLLERVIFPSVKIATLV (modifications not checked) [AdenoE4 typ9] | 4 A450 class

Molecular target: GST-DLG1 PDZ domain 1 (Homo sapiens), Q12959
Assay: G' assay

Row | Binder | Classification
11 | VGTLLLERVIFPSVKIATLV (modifications not checked) [AdenoE4 typ9] | 4 A450 class
12 | TQGFPGPATWRRISSLESEV (modifications not checked) [NMDA Glutamate Receptor 2C (cysteine-free)] | 5 A450 class
13 | QISPGGLEPPSEKHFRETEV (modifications not checked) [TAX] | 5 A450 class

Molecular target: T5, GST-ZO-2 PDZ domain 1 (Homo sapiens …)
Assay: G' assay

Row | Binder | Classification
14 | ILNSIQVMRAQMNQIQSVEV (modifications not checked) [ephrin B2] | 1 A450 class
15 | VGTLLLERVIFPSVKIATLV (modifications not checked) [AdenoE4 typ9] | 3 A450 class

Molecular target: GST-DLG1 PDZ domains 1, 2 (Homo sapiens), Q12959
Assay: G' assay

Row | Binder | Classification
16 | VGTLLLERVIFPSVKIATLV (modifications not checked) [AdenoE4 typ9] | 5 A450 class
17 | TQGFPGPATWRRISSLESEV (modifications not checked) [NMDA Glutamate Receptor 2C (cysteine-free)] | 5 A450 class
18 | QISPGGLEPPSEKHFRETEV (modifications not checked) [TAX] | 5 A450 class
19 | VPGALDYAAFSSALYGESDL (modifications not checked) [a-actinin 2] | 1 A450 class

Molecular target: GST-PSD95 PDZ domain 1 (Homo sapiens)
Assay: G' assay

Row | Binder | Classification
20 | VGTLLLERVIFPSVKIATLV (modifications not checked) [AdenoE4 typ9] | 4 A450 class
21 | TQGFPGPATWRRISSLESEV (modifications not checked) [NMDA Glutamate Receptor 2C (cysteine-free)] | 5 A450 class
22 | QISPGGLEPPSEKHFRETEV (modifications not checked) [TAX] | 5 A450 class

Molecular target: GST-Atrophin-1 Interacting Protein PDZ domain 1 (Rattus norvegicus (Rat)), O88382
Sequence (O88382 408-511): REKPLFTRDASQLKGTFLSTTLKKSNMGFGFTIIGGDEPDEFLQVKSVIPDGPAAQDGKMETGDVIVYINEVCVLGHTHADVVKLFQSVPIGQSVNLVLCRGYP
Assay: G' assay

Row | Binder | Classification
23 | VGTLLLERVIFPSVKIATLV (modifications not checked) [AdenoE4 typ9] | 5 A450 class
24 | TQGFPGPATWRRISSLESEV (modifications not checked) [NMDA Glutamate Receptor 2C (cysteine-free)] | 5 A450 class
25 | QISPGGLEPPSEKHFRETEV (modifications not checked) [TAX] | 5 A450 class

Molecular target: T6, GST-ZO-2 PDZ domain 2 (Homo sapiens …)
Assay: G' assay

Row | Binder | Classification
26 | ILNSIQVMRAQMNQIQSVEV (modifications not checked) [ephrin B2] | 1 A450 class

Molecular target: T7, GST-ZO-3 PDZ domain 1
Assay: G' assay

Row | Binder | Classification
27 | ILNSIQVMRAQMNQIQSVEV (modifications not checked) [ephrin B2] | 1 A450 class

Molecular target: T8, GST-KIAA0382 PDZ domain 1 (Canis lupus …)
Assay: G' assay

Row | Binder | Classification
28 | ILNSIQVMRAQMNQIQSVEV (modifications not checked) [ephrin B2] | 2 A450 class
29 | VGTLLLERVIFPSVKIATLV (modifications not checked) [AdenoE4 typ9] | 1 A450 class
30 | TQGFPGPATWRRISSLESEV (modifications not checked) [NMDA Glutamate Receptor 2C (cysteine-free)] | 1 A450 class

Molecular target: T9, GST-DLG1 PDZ domain 2 (Homo sapiens), …
Assay: G' assay

Row | Binder | Classification
31 | VGTLLLERVIFPSVKIATLV (modifications not checked) [AdenoE4 typ9] | 5 A450 class
32 | TQGFPGPATWRRISSLESEV (modifications not checked) [NMDA Glutamate Receptor 2C (cysteine-free)] | 5 A450 class
33 | QISPGGLEPPSEKHFRETEV (modifications not checked) [TAX] | 5 A450 class
34 | VPGALDYAAFSSALYGESDL (modifications not checked) [a-actinin 2] | 1 A450 class

Molecular target: T10, GST-INADL PDZ domain 8 (Homo sapiens …)
Assay: G' assay

Row | Binder | Classification
35 | VGTLLLERVIFPSVKIATLV (modifications not checked) [AdenoE4 typ9] | 2 A450 class
36 | TQGFPGPATWRRISSLESEV (modifications not checked) [NMDA Glutamate Receptor 2C (cysteine-free)] | 1 A450 class

Molecular target: T11, GST-INADL PDZ domain 5 (Homo sapiens …)
Assay: G' assay

Row | Binder | Classification
37 | TQGFPGPATWRRISSLESEV (modifications not checked) [NMDA Glutamate Receptor 2C (cysteine-free)] | 1 A450 class

Molecular target: T12, GST-Shank 1 PDZ domain 1 (Homo sapiens …)
Assay: G' assay

Row | Binder | Classification
38 | VPGALDYAAFSSALYGESDL (modifications not checked) [a-actinin 2] | 1 A450 class

Molecular target: T13, GST-MINT1 PDZ domains 1, 2, Q02410
Assay: G' assay

Row | Binder | Classification
39 | ILNSIQVMRAQMNQIQSVEV (modifications not checked) [ephrin B2] | 2 A450 class
40 | VGTLLLERVIFPSVKIATLV (modifications not checked) [AdenoE4 typ9] | 2 A450 class
41 | TQGFPGPATWRRISSLESEV (modifications not checked) [NMDA Glutamate Receptor 2C (cysteine-free)] | 1 A450 class
42 | VPGALDYAAFSSALYGESDL (modifications not checked) [a-actinin 2] | 1 A450 class

Molecular target: T14, GST-ZO-3 PDZ domain 3 (Homo sapiens …)
Assay: G' assay

Row | Binder | Classification
43 | ILNSIQVMRAQMNQIQSVEV (modifications not checked) [ephrin B2] | 1 A450 class

Molecular target: GST-BAI-1 Associated Protein PDZ domain 4 (Homo sapiens (Human)), Q96QZ7
Sequence (Q96QZ7 other isoform, or with tags, fused parts or gaps): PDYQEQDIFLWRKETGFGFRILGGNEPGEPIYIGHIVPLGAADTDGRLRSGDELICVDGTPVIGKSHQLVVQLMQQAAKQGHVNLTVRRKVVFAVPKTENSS
Assay: G' assay

Row | Binder | Classification
44 | VGTLLLERVIFPSVKIATLV (modifications not checked) [AdenoE4 typ9] | 5 A450 class
45 | TQGFPGPATWRRISSLESEV (modifications not checked) [NMDA Glutamate Receptor 2C (cysteine-free)] | 3 A450 class
46 | QISPGGLEPPSEKHFRETEV (modifications not checked) [TAX] | 2 A450 class

Molecular target: T15, GST-KIAA1634 PDZ domain 2 (Homo sapiens …)
Assay: G' assay

Row | Binder | Classification
47 | ILNSIQVMRAQMNQIQSVEV (modifications not checked) [ephrin B2] | 1 A450 class
48 | VGTLLLERVIFPSVKIATLV (modifications not checked) [AdenoE4 typ9] | 5 A450 class
49 | TQGFPGPATWRRISSLESEV (modifications not checked) [NMDA Glutamate Receptor 2C (cysteine-free)] | 3 A450 class
50 | QISPGGLEPPSEKHFRETEV (modifications not checked) [TAX] | 2 A450 class

Molecular target: T16, GST-ERBIN PDZ domain 1 (Homo sapiens …)
Assay: G' assay

Row | Binder | Classification
51 | TQGFPGPATWRRISSLESEV (modifications not checked) [NMDA Glutamate Receptor 2C (cysteine-free)] | 4 A450 class
52 | QISPGGLEPPSEKHFRETEV (modifications not checked) [TAX] | 5 A450 class
53 | VPGALDYAAFSSALYGESDL (modifications not checked) [a-actinin 2] | 1 A450 class
